Assay results taken from article PMC3077903 (Molecular microbiology, 2011).

T1: MinD (E. coli, UniProt P0AEZ3 1-270)
T1 sequence (looked up): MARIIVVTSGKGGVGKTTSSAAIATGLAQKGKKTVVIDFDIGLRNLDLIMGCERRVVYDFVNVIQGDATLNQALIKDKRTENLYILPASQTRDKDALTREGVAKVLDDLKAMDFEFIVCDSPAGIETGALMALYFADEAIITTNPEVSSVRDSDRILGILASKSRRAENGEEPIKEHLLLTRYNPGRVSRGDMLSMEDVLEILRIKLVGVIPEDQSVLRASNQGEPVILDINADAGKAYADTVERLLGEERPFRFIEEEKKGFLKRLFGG

T2: MinD-D152A (E. coli, UniProt P0AEZ3 1-270, D152A)
T2 sequence (looked up): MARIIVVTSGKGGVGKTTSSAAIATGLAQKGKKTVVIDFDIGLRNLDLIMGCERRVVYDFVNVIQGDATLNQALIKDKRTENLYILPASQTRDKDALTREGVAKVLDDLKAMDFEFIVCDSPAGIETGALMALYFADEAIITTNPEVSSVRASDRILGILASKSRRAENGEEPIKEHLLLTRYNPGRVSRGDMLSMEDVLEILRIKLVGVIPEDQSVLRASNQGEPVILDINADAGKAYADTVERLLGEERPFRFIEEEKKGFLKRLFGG

B1: MinE (full length) (natural protein, E. coli, UniProt P0A734 1-88, looked up)
chain: MALLDFFLSRKKNTANIAKERLQIIVAERRRSDAEPHYLPQLRKDILEVICKYVQIDPEMVTVQLEQKDGDISILELNVTLPEAEELK
B2: MinDΔ10-D40A (domain or fragment, E. coli, UniProt P0AEZ3 1-260, looked up)
chain: MARIIVVTSGKGGVGKTTSSAAIATGLAQKGKKTVVIDFAIGLRNLDLIMGCERRVVYDFVNVIQGDATLNQALIKDKRTENLYILPASQTRDKDALTREGVAKVLDDLKAMDFEFIVCDSPAGIETGALMALYFADEAIITTNPEVSSVRDSDRILGILASKSRRAENGEEPIKEHLLLTRYNPGRVSRGDMLSMEDVLEILRIKLVGVIPEDQSVLRASNQGEPVILDINADAGKAYADTVERLLGEERPFRFIEEEK
B3: MinE^1-31 (domain or fragment, E. coli, UniProt P0A734 1-31, looked up)
chain: MALLDFFLSRKKNTANIAKERLQIIVAERRR

Legend:
MinD = target: T1, MinD; assay: two-hybrid
MinD-D152A = target: T2, MinD-D152A; assay: two-hybrid
SEC = target: the molecule itself; assay: SEC

Row | Binder | percent of the MinE-MinD β-galactosidase activity (MinD) | percent of the MinE-MinD β-galactosidase activity (MinD-D152A) | β-galactosidase activity (MinD-D152A) | stoichiometry N (SEC) | β-galactosidase activity (MinD)
1 | B1 | 100% | 44% | 145 units of β-galactosidase activity |  | 
2 | B2 |  |  |  | 2 | 
3 | B3 | 120% | 8% | 28 units of β-galactosidase activity |  | 398 units of β-galactosidase activity
